This note sets out measurements from publication PMC3392526.

What all share (assay): crystal structure
Data set [1] concerns the target T1, ALKBH2-dN55 crosslinking mutant (Homo sapiens, UniProt Q6NS38 56-261, C67S;C165S;G169C;C192S).
T1 sequence: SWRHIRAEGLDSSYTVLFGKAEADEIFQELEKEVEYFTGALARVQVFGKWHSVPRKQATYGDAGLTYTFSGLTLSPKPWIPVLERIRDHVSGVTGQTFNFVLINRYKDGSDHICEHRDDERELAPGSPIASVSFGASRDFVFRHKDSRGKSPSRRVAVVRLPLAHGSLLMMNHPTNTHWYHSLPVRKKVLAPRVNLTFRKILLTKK

Data set [2] deals with T1, ALKBH2-dN55 crosslinking mutant. This is another data set of the same source.
Data set [3] has the same target. This is another data set of the same source.
Data set [4] has the same target. The source holds these as a separate data set.

Read-outs that look alike come from different tables or passages of the source.

B1: eA DNA (dsDNA)
DNA 1: CTGTCAAACTGCG
DNA 2: TCGCAGTTAGACA
modifications: 1,N6-ethenoadenine at position 7 of strand 1 (written A); no C* printed in this strand
As to B1, in data set [1], the binding result is given as “binds”.

B2: CI DNA (dsDNA)
DNA 1: ATGTATCACTGCG
DNA 2: TCGCAGTGATACA
modifications: C* (position 9 of strand 1): disulfide crosslinking cytosine; strand 2 position 8 is inosine (written G)
For B2, the binding result in data set [2] was “binds”.

B3: 3-meC DNA (dsDNA)
DNA 1: CTGTCTCACTGCG
DNA 2: TCGCAGTGAGACA
modifications: 3-methylcytosine at position 7 of strand 1 (written C); C* (position 9): disulfide crosslinking cytosine
Turning to B3, the binding result in data set [1] was “binds”.

B4: AT DNA (dsDNA)
DNA 1: ATGTATAACTGCG
DNA 2: TCGCAGTTATACA
modifications: C* (position 9 of strand 1): disulfide crosslinking cytosine
B4: the binding result in data set [3] is given as “binds”.

B5: CG DNA (dsDNA)
DNA 1: CTGTCATCACTGCG
DNA 2: TCGCAGTGATGACA
modifications: C* (position 10 of strand 1): disulfide crosslinking cytosine
Consider B5, for which the binding result in data set [4] is “binds”.
